Experimental data as given in patent publication US20160010082A1 (University of California, published 2016).

Legend:
[1] = biological target: T1, streptavidin-R-phycoerythrin (UniProt P22629 37-163, limits assumed); test: flow cytometry of E. coli displaying the construct, 100 nM SA-PE; 25 minutes of expression
T1 construct: Bought conjugate; also called SA-PE; fluorescently-conjugated streptavidin probe

[2] = biological target: T1, streptavidin-R-phycoerythrin; test: flow cytometry of E. coli displaying the construct, 100 nM SA-PE; 50 minutes of expression
[3] = biological target: T1, streptavidin-R-phycoerythrin; test: flow cytometry of E. coli displaying the construct, 100 nM SA-PE; 30 minutes of expression
Method: To compare the display level of CPX and eCPX as a function of time of CPX and eCPX, cells were subcultured 1:50 from overnight stocks into 5 mL LB Cm and grown for 2 hours shaking (250 rpm) at 37° C. The cells were then moved to room temperature (22° C.) to equilibrate and induced with 0.04% (w/v) L-arabinose still shaking at 250 rpm. Five μL samples were taken prior to induction, 30, 60, and 90 minutes after induction then added to 50 μL of 100 nM SA-PE in PBS and incubated on ice for 45 minutes. After which the cells were centrifuged (3000 g, 5 min), supernatant removed, and resuspended in 500 μL ice cold PBS. Cells were immediately analyzed with a […] using 488 nm excitation and collected fluorescence data at 576 nm.
The cell surface display level of SApep was measured at incremental times after induction of expression for these three scaffolds. […] The level of display was measured before and after 30, 60, and 90 minutes of induction using flow cytometry (FIG. 1). […] After only 30 minutes of expression, the level of display of eCPX-nSApep was 50-fold above background autofluorescence.

[4] = biological target: T2, biotinylated vascular endothelial growth factor (UniProt P15692-4 27-191, limits assumed); test: flow cytometry of E. coli displaying the construct, 65 nM biotinylated VEGF then 10 nM SA-PE; reference CPX display
T2 construct: also called VEGF; biotinylated VEGF
T2 sequence (P15692 other isoform, or with tags, fused parts or gaps limits assumed): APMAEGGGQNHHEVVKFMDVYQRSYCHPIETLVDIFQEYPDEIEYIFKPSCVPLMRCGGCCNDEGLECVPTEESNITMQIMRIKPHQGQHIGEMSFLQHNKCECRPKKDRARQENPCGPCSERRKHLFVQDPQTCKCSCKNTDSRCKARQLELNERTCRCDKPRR

[5] = biological target: T3, biotinylated C-reactive protein (UniProt P02741 19-224, biotinylated); test: flow cytometry of E. coli displaying the construct, 100 nM biotinylated CRP then 10 nM SA-PE; 30 minutes of expression; reference CPX display
T3 construct: also called CRP; biotinylated CRP
T3 sequence (looked up): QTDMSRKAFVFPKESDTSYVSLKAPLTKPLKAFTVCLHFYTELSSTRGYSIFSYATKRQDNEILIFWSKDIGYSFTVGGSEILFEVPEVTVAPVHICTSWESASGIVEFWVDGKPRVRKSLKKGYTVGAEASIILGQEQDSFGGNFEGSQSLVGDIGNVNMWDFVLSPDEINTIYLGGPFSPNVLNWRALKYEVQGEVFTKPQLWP

T1 sequence (P22629 37-163 limits assumed): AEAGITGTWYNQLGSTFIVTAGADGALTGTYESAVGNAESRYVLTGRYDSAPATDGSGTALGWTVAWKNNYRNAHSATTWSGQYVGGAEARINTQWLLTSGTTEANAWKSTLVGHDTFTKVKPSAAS

B1: CPX with the streptavidin binding peptide fused to the N-terminus (pB33CPX-SApep) (other)
chain: GQSGQAECHPQGPPCIEGRKGGQSGQSGDYNKNQYYGITAGPAYRINDWASIYGVVGVGYGKFQTTEYPTYKHDTSDYGFSYGAGLQFNPMENVALDFSYEQSRIRSVDVGTWIAGVGYRFGGSGATSTVTGGYAQSDAQGQMNKMGGFNLKYRYEEDNSPLGVIGSFTYTEKSRTAS
notes: also called parent CPX scaffold
For B1, the “Relative Display level (fold fluorescence above background)” value [1] was 1.5 fold above background and the “Relative Display level (fold fluorescence above background)” value [2] was 2.3 fold above background.

B2: CPX-L2-1 (enhanced CPX, eCPX) displaying SApep at the N-terminus (other)
chain: GQSGQAECHPQGPPCIEGRKGGQSGQSGDYNKNQYYGITAGPAYRINDWASIYGVVGVGYGKFQTTEYPTYKHDTSDYGFSYGAGLQFNPMENVALDFSYEQSRIRSVDVGTWILSVGYRFGSKSRRATSTVTGGYAQSDAQGQMNKMGGFNLKYRYEEDNSPLGVIGSFTYTEKSRTAS
notes: also called eCPX-nSApep
With B2 the “level of display (fold above background autofluorescence)” value [3] was 50 fold above background and the “Relative Display level (fold fluorescence above background)” value [1] was 33 fold above background.

B3: eCPX displaying the VEGF binding peptide at the N-terminus (other)
chain: GQSGQVEPNCDIHVMWEWECFERLGGQSGQSGDYNKNQYYGITAGPAYRINDWASIYGVVGVGYGKFQTTEYPTYKHDTSDYGFSYGAGLQFNPMENVALDFSYEQSRIRSVDVGTWILSVGYRFGSKSRRATSTVTGGYAQSDAQGQMNKMGGFNLKYRYEEDNSPLGVIGSFTYTEKSRTAS
notes: Disulfide-constrained 19-mer; also called V114
For B3, the “fold more efficient display than CPX” value [4] was over 3 fold.

B4: eCPX displaying the CRP binding peptide (CRPpep) at the N-terminus (other)
chain: GQSGQEWACNDRGFNCQLQRGGQSGQSGDYNKNQYYGITAGPAYRINDWASIYGVVGVGYGKFQTTEYPTYKHDTSDYGFSYGAGLQFNPMENVALDFSYEQSRIRSVDVGTWILSVGYRFGSKSRRATSTVTGGYAQSDAQGQMNKMGGFNLKYRYEEDNSPLGVIGSFTYTEKSRTAS
notes: Disulfide-constrained peptide; also called CRP-1
With B4 the “fold higher fluorescence labeling than for CPX” value [5] was about 50 fold.
